Data from patent publication US5786168.

What was measured:
[1] = target: PLA2-binding GIF from anti-CD3-treated AC5 cells (human); test: ELISA of the acid eluate fraction from 110BH3-Sepharose
[2] = target: recombinant human GIF secreted by COS-1 cells co-transfected with SRα-hcGIF and SRα-hfurin (human); test: fractionation of concentrated COS-1 supernatant on 388F1-Sepharose; GIF bioassay
[3] = target: human antigen non-specific glycosylation inhibiting factor (GIF), hybridoma-derived (human); test: ELISA, culture supernatant on wells coated with affinity-purified GIF from CL3
[4] = target: bovine serum albumin (BSA) (bovine) (UniProt P02769); test: ELISA, nonspecific binding of Ig in the same supernatant to BSA-coated wells
[5] = target: human antigen non-specific glycosylation inhibiting factor (GIF), hybridoma-derived (human); test: ELISA of the flow-through fraction from 110BH3-Sepharose

monoclonal anti-human GIF antibody 388F1 (ATCC HB 10472)
ELISA signal (absorption at 490 nm) [1]: 0.86 absorbance | GIF activity recovered in the acid eluate fraction [2]: > 75% | ELISA signal (optical density at 410 mµ) [3]: 0.892 OD | ELISA control (optical density at 410 mµ) [4]: 0.1 OD | ELISA signal (absorption at 490 nm) [5]: 0.36 absorbance
